Measured values taken from patent US20120238493A1 (INDIANA UNIVERSITY RESEARCH AND TECHNOLOGY, published 2012).
Like-named read-outs stand apart in the source and are kept apart here. *1 amine or outer side, *2 acyl side, *3 side chain or, on linkers, in order; H or OH if unused. Where no end group is shown, it is not given here. Side-chain parts run from the residue outwards. [ ]: non-standard residue; d: D form. The star is where a group is joined. γGlu = O=C(O)[C@H](CCC(=O)[*:2])N[*:1]; Palmitoyl = CCCCCCCCCCCCCCCC(=O)*; Aib = CC(C)(N)C(=O)O

Key:
Assay in all cases: cell-based or functional assay
GIP receptor [1] = target: T1, GIP receptor (UniProt P48546 22-466, limits assumed)
T1 sequence (looked up): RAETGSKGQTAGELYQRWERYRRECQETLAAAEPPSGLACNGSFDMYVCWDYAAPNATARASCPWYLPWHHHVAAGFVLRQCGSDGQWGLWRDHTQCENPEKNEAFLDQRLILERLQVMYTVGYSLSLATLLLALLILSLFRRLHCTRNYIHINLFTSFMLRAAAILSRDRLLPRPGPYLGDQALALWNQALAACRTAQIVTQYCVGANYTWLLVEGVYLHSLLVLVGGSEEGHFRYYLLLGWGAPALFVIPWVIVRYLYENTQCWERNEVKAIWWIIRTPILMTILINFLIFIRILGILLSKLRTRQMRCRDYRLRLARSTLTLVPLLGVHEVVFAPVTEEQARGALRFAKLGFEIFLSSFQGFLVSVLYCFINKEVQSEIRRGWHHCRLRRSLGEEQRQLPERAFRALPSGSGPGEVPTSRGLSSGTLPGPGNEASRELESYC

glucagon receptor [2] = target: T2, glucagon receptor (UniProt P47871 26-477, limits assumed)
T2 sequence (P47871 26-477 limits assumed): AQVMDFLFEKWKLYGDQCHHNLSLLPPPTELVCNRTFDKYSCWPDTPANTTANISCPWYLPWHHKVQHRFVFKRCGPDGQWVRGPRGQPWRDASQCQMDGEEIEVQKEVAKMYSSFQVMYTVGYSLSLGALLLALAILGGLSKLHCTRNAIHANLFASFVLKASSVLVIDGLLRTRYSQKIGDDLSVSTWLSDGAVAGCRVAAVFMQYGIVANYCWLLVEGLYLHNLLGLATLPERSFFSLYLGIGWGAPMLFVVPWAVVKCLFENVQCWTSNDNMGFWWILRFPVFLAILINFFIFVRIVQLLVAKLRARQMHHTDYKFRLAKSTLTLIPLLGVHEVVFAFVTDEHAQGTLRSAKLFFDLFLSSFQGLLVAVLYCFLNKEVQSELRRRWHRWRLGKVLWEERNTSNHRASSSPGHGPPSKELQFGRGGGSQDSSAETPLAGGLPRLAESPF

GLP-1 receptor [3] = target: T3, GLP-1 receptor (UniProt P43220 24-463, limits assumed)
Target sequence in this assay (P43220 24-463 limits assumed): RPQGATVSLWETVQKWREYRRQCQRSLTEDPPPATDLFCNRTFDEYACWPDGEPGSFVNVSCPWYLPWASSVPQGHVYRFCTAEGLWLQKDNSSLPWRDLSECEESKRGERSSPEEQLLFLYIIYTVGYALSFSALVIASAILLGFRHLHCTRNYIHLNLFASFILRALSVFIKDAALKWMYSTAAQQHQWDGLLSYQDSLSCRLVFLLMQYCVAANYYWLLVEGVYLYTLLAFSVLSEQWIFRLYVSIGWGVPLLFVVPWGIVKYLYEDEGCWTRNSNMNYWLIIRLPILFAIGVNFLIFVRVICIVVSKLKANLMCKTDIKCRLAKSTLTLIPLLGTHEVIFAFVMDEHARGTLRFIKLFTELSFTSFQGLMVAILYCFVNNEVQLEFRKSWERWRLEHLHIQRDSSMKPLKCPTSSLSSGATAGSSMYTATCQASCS

GIP receptor [4] = target: T1, GIP receptor; remark: listed apart in the source
glucagon receptor [5] = target: T2, glucagon receptor; remark: listed apart in the source
GLP-1 receptor [6] = target: T3, GLP-1 receptor; remark: listed apart in the source
GIP receptor [7] = target: T1, GIP receptor; remark: listed apart in the source
glucagon receptor [8] = target: T2, glucagon receptor; remark: listed apart in the source
GLP-1 receptor [9] = target: T3, GLP-1 receptor; remark: listed apart in the source
Target sequence in this assay (P43220 24-463 limits assumed): as above

GIP receptor [10] = target: T1, GIP receptor; remark: listed apart in the source
glucagon receptor [11] = target: T2, glucagon receptor; remark: listed apart in the source
GLP-1 receptor [12] = target: T3, GLP-1 receptor; remark: listed apart in the source
Target sequence in this assay (P43220 24-463 limits assumed): as above

GIP receptor [13] = target: T1, GIP receptor; remark: listed apart in the source
glucagon receptor [14] = target: T2, glucagon receptor; remark: listed apart in the source
GLP-1 receptor [15] = target: T3, GLP-1 receptor; remark: listed apart in the source

YXEGTFTSDXSIYLDKQAAXEFVNWLLAGGPSSGAPPPS (aib at 2 and 20; 4-aminoPhe at 10, F(4amino-succinoylC16); NH2) [peptide of SEQ ID NO: 144]
EC50 (cAMP reporter) (GIP receptor [1]): 13 pM | EC50 (cAMP reporter) (glucagon receptor [2]): > 500 pM | EC50 (cAMP reporter) (GLP-1 receptor [3]): 4 pM

H[Aib]QGTFTSDYSKYLDERAAQDFVQWLLDGGPSSGAPPPSK-NH2 (also: Lys40 branched dual acylation K*K(γE-C16)2) [dual acylated peptide of SEQ ID NO: 161]
EC50 (cAMP, nmole) (GIP receptor [4]): 0.01 nmol | EC50 (cAMP, nmole) (glucagon receptor [5]): 0.011 nmol | EC50 (cAMP, nmole) (GLP-1 receptor [6]): 0.007 nmol

B1: dual acylated peptide of SEQ ID NO: 160 (peptide)
peptide: HXQGTFTSDKSKYLDERAAQDFVQWLLDGGPSSGAPPPS
modifications: aib at 2; Lys10 carrying two acylations in a branched formation, K*K(rEC16)2; amide
EC50 (cAMP, nmole) (GIP receptor [4]): 0.015 nmol | EC50 (cAMP, nmole) (glucagon receptor [5]): 0.024 nmol | EC50 (cAMP, nmole) (GLP-1 receptor [6]): 0.007 nmol

B2: dual acylated peptide of SEQ ID NO: 162 (peptide)
peptide: HXQGTFTSDKSKYLDERAAQDFVQWLLDGGPSSGAPPPS
modifications: aib at 2; Lys10 carrying two acylations in a linear formation, K*(C12-rEC16); amide
EC50 (cAMP, nmole) (GIP receptor [4]): 0.033 nmol | EC50 (cAMP, nmole) (glucagon receptor [5]): 0.008 nmol | EC50 (cAMP, nmole) (GLP-1 receptor [6]): 0.003 nmol

B3: Analog No. 61: Aib2, K10acyl, E16, Aib20, E21, L27, D28, G29 + CEX (SEQ ID NO: 37) (peptide)
peptide: H[Aib]QGTFTSDK([γGlu-Palmitoyl])SKYLDERRA[Aib]EFVQWLLDGGPSSGAPPPS-NH2
modifications: N-terminus assumed
SMILES: CCCCCCCCCCCCCCCC(=O)N[C@@H](CCC(=O)NCCCC[C@H](NC(=O)[C@H](CC(=O)O)NC(=O)[C@H](CO)NC(=O)[C@@H](NC(=O)[C@H](Cc1ccccc1)NC(=O)[C@@H](NC(=O)CNC(=O)[C@H](CCC(N)=O)NC(=O)C(C)(C)NC(=O)[C@@H](N)Cc1c[nH]cn1)[C@@H](C)O)[C@@H](C)O)C(=O)N[C@@H](CO)C(=O)N[C@@H](CCCCN)C(=O)N[C@@H](Cc1ccc(O)cc1)C(=O)N[C@@H](CC(C)C)C(=O)N[C@@H](CC(=O)O)C(=O)N[C@@H](CCC(=O)O)C(=O)N[C@@H](CCCNC(=N)N)C(=O)N[C@@H](CCCNC(=N)N)C(=O)N[C@@H](C)C(=O)NC(C)(C)C(=O)N[C@@H](CCC(=O)O)C(=O)N[C@@H](Cc1ccccc1)C(=O)N[C@H](C(=O)N[C@@H](CCC(N)=O)C(=O)N[C@@H](Cc1c[nH]c2ccccc12)C(=O)N[C@@H](CC(C)C)C(=O)N[C@@H](CC(C)C)C(=O)N[C@@H](CC(=O)O)C(=O)NCC(=O)NCC(=O)N1CCC[C@H]1C(=O)N[C@@H](CO)C(=O)N[C@@H](CO)C(=O)NCC(=O)N[C@@H](C)C(=O)N1CCC[C@H]1C(=O)N1CCC[C@H]1C(=O)N1CCC[C@H]1C(=O)N[C@@H](CO)C(N)=O)C(C)C)C(=O)O
EC50 (cAMP reporter) (GIP receptor [7]): 2 pM | EC50 (cAMP reporter) (glucagon receptor [8]): 4 pM | EC50 (cAMP reporter) (GLP-1 receptor [9]): 6 pM | activity (cAMP reporter), column GIP (GIP receptor [10]): 0.003 | activity (cAMP reporter), column Glu (glucagon receptor [11]): 0.004 | activity (cAMP reporter), column GLP (GLP-1 receptor [12]): 0.006

H[Aib]QGTFTSDYSKYLDERAAQDFVQWLLAGGPSSGAPPPSK([γGlu-γGlu-Palmitoyl])G-NH2 [peptide of SEQ ID NO: 203]
EC50 (cAMP reporter) (GIP receptor [13]): 7 pM | EC50 (cAMP reporter) (glucagon receptor [14]): 3 pM | EC50 (cAMP reporter) (GLP-1 receptor [15]): 1 pM

B4: dual acylated peptide of SEQ ID NO: 163 (peptide)
peptide: H[Aib]QGTFTSDK([γGlu-Palmitoyl])SKYLDERAAQDFVQWLLDGGPSSGAPPPSK([γGlu-Palmitoyl])-NH2
modifications: N-terminus assumed
SMILES: CCCCCCCCCCCCCCCC(=O)N[C@@H](CCC(=O)NCCCC[C@H](NC(=O)[C@H](CO)NC(=O)[C@@H]1CCCN1C(=O)[C@@H]1CCCN1C(=O)[C@@H]1CCCN1C(=O)[C@H](C)NC(=O)CNC(=O)[C@H](CO)NC(=O)[C@H](CO)NC(=O)[C@@H]1CCCN1C(=O)CNC(=O)CNC(=O)[C@H](CC(=O)O)NC(=O)[C@H](CC(C)C)NC(=O)[C@H](CC(C)C)NC(=O)[C@H](Cc1c[nH]c2ccccc12)NC(=O)[C@H](CCC(N)=O)NC(=O)[C@@H](NC(=O)[C@H](Cc1ccccc1)NC(=O)[C@H](CC(=O)O)NC(=O)[C@H](CCC(N)=O)NC(=O)[C@H](C)NC(=O)[C@H](C)NC(=O)[C@H](CCCNC(=N)N)NC(=O)[C@H](CCC(=O)O)NC(=O)[C@H](CC(=O)O)NC(=O)[C@H](CC(C)C)NC(=O)[C@H](Cc1ccc(O)cc1)NC(=O)[C@H](CCCCN)NC(=O)[C@H](CO)NC(=O)[C@H](CCCCNC(=O)CC[C@H](NC(=O)CCCCCCCCCCCCCCC)C(=O)O)NC(=O)[C@H](CC(=O)O)NC(=O)[C@H](CO)NC(=O)[C@@H](NC(=O)[C@H](Cc1ccccc1)NC(=O)[C@@H](NC(=O)CNC(=O)[C@H](CCC(N)=O)NC(=O)C(C)(C)NC(=O)[C@@H](N)Cc1c[nH]cn1)[C@@H](C)O)[C@@H](C)O)C(C)C)C(N)=O)C(=O)O
EC50 (cAMP, nmole) (GIP receptor [4]): 0.024 nmol | EC50 (cAMP, nmole) (glucagon receptor [5]): 0.018 nmol | EC50 (cAMP, nmole) (GLP-1 receptor [6]): 0.011 nmol

H[Aib]EGTFTSDK([γGlu-C16])SKYLDERRA[Aib]EFVQWLLDGGPSSGAPPPS-NH2 [Analog No. 62: Aib2, E3, K10acyl, E16, Aib20, E21, L27, D28, G29 + CEX (SEQ ID NO: 38)]
EC50 (cAMP reporter) (GIP receptor [7]): 12 pM | EC50 (cAMP reporter) (glucagon receptor [8]): 127 pM | EC50 (cAMP reporter) (GLP-1 receptor [9]): 8 pM | activity (cAMP reporter), column GIP (GIP receptor [10]): 0.012 | activity (cAMP reporter), column Glu (glucagon receptor [11]): 0.127 | activity (cAMP reporter), column GLP (GLP-1 receptor [12]): 0.008

H[Aib]QGTFTSDYSKYLDERAAQDFVQWLLDAGPSSGAPPPSK([γGlu-γGlu-Palmitoyl])G-NH2 [peptide of SEQ ID NO: 204]
EC50 (cAMP reporter) (GIP receptor [13]): 69 pM | EC50 (cAMP reporter) (glucagon receptor [14]): 3 pM | EC50 (cAMP reporter) (GLP-1 receptor [15]): 1 pM

B5: peptide of SEQ ID NO: 205 (peptide)
peptide: H[Aib]QGTFTSDK([γGlu-Palmitoyl])SKYLDERAAQDFVQWLLDGGPSSGAPPPSG-NH2
modifications: N-terminus assumed
SMILES: CCCCCCCCCCCCCCCC(=O)N[C@@H](CCC(=O)NCCCC[C@H](NC(=O)[C@H](CC(=O)O)NC(=O)[C@H](CO)NC(=O)[C@@H](NC(=O)[C@H](Cc1ccccc1)NC(=O)[C@@H](NC(=O)CNC(=O)[C@H](CCC(N)=O)NC(=O)C(C)(C)NC(=O)[C@@H](N)Cc1c[nH]cn1)[C@@H](C)O)[C@@H](C)O)C(=O)N[C@@H](CO)C(=O)N[C@@H](CCCCN)C(=O)N[C@@H](Cc1ccc(O)cc1)C(=O)N[C@@H](CC(C)C)C(=O)N[C@@H](CC(=O)O)C(=O)N[C@@H](CCC(=O)O)C(=O)N[C@@H](CCCNC(=N)N)C(=O)N[C@@H](C)C(=O)N[C@@H](C)C(=O)N[C@@H](CCC(N)=O)C(=O)N[C@@H](CC(=O)O)C(=O)N[C@@H](Cc1ccccc1)C(=O)N[C@H](C(=O)N[C@@H](CCC(N)=O)C(=O)N[C@@H](Cc1c[nH]c2ccccc12)C(=O)N[C@@H](CC(C)C)C(=O)N[C@@H](CC(C)C)C(=O)N[C@@H](CC(=O)O)C(=O)NCC(=O)NCC(=O)N1CCC[C@H]1C(=O)N[C@@H](CO)C(=O)N[C@@H](CO)C(=O)NCC(=O)N[C@@H](C)C(=O)N1CCC[C@H]1C(=O)N1CCC[C@H]1C(=O)N1CCC[C@H]1C(=O)N[C@@H](CO)C(=O)NCC(N)=O)C(C)C)C(=O)O
EC50 (cAMP reporter) (GIP receptor [13]): 4 pM | EC50 (cAMP reporter) (glucagon receptor [14]): 5 pM | EC50 (cAMP reporter) (GLP-1 receptor [15]): 2 pM

B6: peptide of SEQ ID NO: 207 (peptide)
peptide: H[Aib]QGTFTSDK([γGlu-γGlu-Palmitoyl])SKYLDERAAQDFVQWLLDGGPSSGAPPPSG-NH2
modifications: N-terminus assumed
SMILES: CCCCCCCCCCCCCCCC(=O)N[C@@H](CCC(=O)N[C@@H](CCC(=O)NCCCC[C@H](NC(=O)[C@H](CC(=O)O)NC(=O)[C@H](CO)NC(=O)[C@@H](NC(=O)[C@H](Cc1ccccc1)NC(=O)[C@@H](NC(=O)CNC(=O)[C@H](CCC(N)=O)NC(=O)C(C)(C)NC(=O)[C@@H](N)Cc1c[nH]cn1)[C@@H](C)O)[C@@H](C)O)C(=O)N[C@@H](CO)C(=O)N[C@@H](CCCCN)C(=O)N[C@@H](Cc1ccc(O)cc1)C(=O)N[C@@H](CC(C)C)C(=O)N[C@@H](CC(=O)O)C(=O)N[C@@H](CCC(=O)O)C(=O)N[C@@H](CCCNC(=N)N)C(=O)N[C@@H](C)C(=O)N[C@@H](C)C(=O)N[C@@H](CCC(N)=O)C(=O)N[C@@H](CC(=O)O)C(=O)N[C@@H](Cc1ccccc1)C(=O)N[C@H](C(=O)N[C@@H](CCC(N)=O)C(=O)N[C@@H](Cc1c[nH]c2ccccc12)C(=O)N[C@@H](CC(C)C)C(=O)N[C@@H](CC(C)C)C(=O)N[C@@H](CC(=O)O)C(=O)NCC(=O)NCC(=O)N1CCC[C@H]1C(=O)N[C@@H](CO)C(=O)N[C@@H](CO)C(=O)NCC(=O)N[C@@H](C)C(=O)N1CCC[C@H]1C(=O)N1CCC[C@H]1C(=O)N1CCC[C@H]1C(=O)N[C@@H](CO)C(=O)NCC(N)=O)C(C)C)C(=O)O)C(=O)O
EC50 (cAMP reporter) (GIP receptor [13]): 15 pM | EC50 (cAMP reporter) (glucagon receptor [14]): 5 pM | EC50 (cAMP reporter) (GLP-1 receptor [15]): 2 pM
